The values below come from publication PMC10755749.

The subject of data set [1] is MPXV A29 protein (mpox virus). The data set can be described thus: SPR. In general terms: SPR reads the build-up and loss of mass on a sensor chip optically.
Data set [2] relates to MPXV A29 protein;anti-A29 IgG antibody (mpox virus;). The data set can be described thus: single-molecule nanopore. The conditions noted are these: 5'-phosphate on aptamer probe, ligated into carrier.
Data set [3] shares this test system. In words: single-molecule nanopore, Hill fit. The conditions noted are these: 5'-phosphate on aptamer probe, ligated into carrier.
Data set [4] has the same test system. The data set can be described thus: single-molecule nanopore. The conditions noted are these: 5'-phosphate on aptamer probe, ligated into carrier. The source holds these as a separate data set.
For data set [5], the system named is VACV A27 protein;anti-A29 IgG antibody (Vaccinia virus (Copenhagen?);). In words: single-molecule nanopore. The note with it: 5'-phosphate on aptamer probe, ligated into carrier.
For data set [6], the system named is VZV protein;anti-A29 IgG antibody (Varicella zoster virus;). The data set can be described thus: single-molecule nanopore. The note with it: 5'-phosphate on aptamer probe, ligated into carrier.
Data set [7] has as its system anti-A29 IgG antibody. The data set can be described thus: single-molecule nanopore. The note with it: 5'-phosphate on aptamer probe, ligated into carrier.

pKd: −log10 of the molar value.

Regarding “AGCACTCCACGCATAACCGGTGGGCGGGGGATGTGGGAAGGTATCGGGGTTGCGTTATGCGTGCTACCGT [HIM-A29-5]”, the pKd – broadly, the negative decadic logarithm of the Kd, by convention in mol/L – in data set [1] is 8.07. Take “AGCACTCCACGCATAACGGAGCCGGGGGGCCTTGGGGGATGCAGCTTCGAAGTGTTATGCGTGCTACCGT [HIM-A29-2]”: in data set [1], the pKd was 7.45. Same read-out and setting: as for “AGCACTCCACGCATAACGGGGGAGGAGGAGGATGTTATTGGGTGGGCGGGTTTGTTATGCGTGCTACCGT [HIM-A29-4]”, the figure is 7.73. The sequence “AGCACTCCACGCATAACGGGGGAGGAGGAGGTTCACTTTGGGCGGGTGGGAATGTTATGCGTGCTACCGT [HIM-A29-3]” gave a pKd in data set [1] of 7.91.

The sequence “AGCACTCCACGCATAACGGGGTCTGGTGGTCTGGCTGGTTTGGGGGTTTGGTCGTTATGCGTGCTACCGT [HIM-A29-1]” showed a pKd in data set [1] of 7.97. On the same count and under the same terms, in the case of “CACGCATAACGTCTTGCGGGGCGGCGGGTTGAGAGGATGTCGGGTGGTTATGCGTG [HIM-A29-6]” it was more than 8.00. For the sequence “CACTGCGCCGGTATCGATATATTTTTTCACGCATAACGTCTTGCGGGGCGGCGGGTTGAGAGGATGTCGGGTGGTTATGCGTG / AAACCACTCAAGTTTGCCAACCAAATGTATATCGATACCGGCGCAGTG [9.1 kbp DNA molecular probe with HIM-A29-6]”, the binding signal (% events with subpeak) in data set [2] came out at 3.98; in data set [4], 3.98; in data set [5] it was 0.01; in data set [6], 0; in data set [7], 0.01. Besides, the pKd in data set [3] was 10.08.
